Results from US20210338656A1, “IMMUNOSTIMULATORY AGENTS IN COMBINATION WITH ANGIOGENESIS INHIBITORS” (Alkermes Pharma Ireland Limited, priority 2020, published 2021).

Experiments:
[1] = Tolerability in vivo in mice relative to rhIL-2; design: species or system mouse; details: doses that elicit equivalent or greater expansion of effector cells relative to Tregs
[2] = test system: gene expression in MC38 tumors; assay: RNA-Seq gene expression in MC38 tumors, Day 10; assay type: in vivo, mouse
Protocol: On Day 10 spleens and tumors were collected and weighed from all animals in Groups 7 through 12 and weighed prior to processing. Tissues from four animals in each group were processed to single cell suspensions for flow cytometry analysis at CRL-NC (described below). Tissues from the remaining six animals in each group were preserved in RNAlater, stored at −80° C.
Tumors and spleens were dissected on the appropriate day of the study and were weighed and immediately placed in RNAlater Stabilizing Reagent to preserve the tissue and stored overnight at 4 deg C. The following day, the samples were removed from RNA later and snap frozen and placed at −80 deg C.
Unless otherwise indicated, everything was done on ice and the materials were prechilled on ice. The tissues were homogenized in TRIzol in Precellys tissue grinding tubes. After homogenization, the TRIzol solutions were transferred to 1.5 ml tubes and spun for 5 min at 12,000×g to eliminate the insoluble material. The TRIzol solutions were then transferred to Phasemaker tubes. Chloroform was added, the tubes were capped, and shaken vigorously for 15 seconds. The samples were then incubated at room temperature for 2-15 minutes and centrifuged at 12,000×g for 5 minutes. The upper, aqueous phase was then transferred to a new tube and an equal volume of 70% ethanol was added and it was vortexed. The liquid was then transferred to Qiagen RNeasy columns and centrifuged at 8000×g. DNAse was added to each tube to eliminate any residual DNA. The columns were then washed and eluted as directed by the kit. The RNA concentrations were determined using a Qubit.
Libraries were prepared for sequencing by using the Mouse Transcriptome Ion AmpliSeq Library Preparation on the Ion Chef System as directed by the manufacturer. Eight samples of purified RNA and 8 unique IonCode molecular barcodes were added to a 96 well plate and were prepared at a time. After the libraries were prepared, they were templated and loaded onto an Ion Torrent 540 chip using the Ion 540 Chef Kit from ThermoFisher. The 540 chips were then loaded into a Gene Studio S5 sequencer and sequenced.
Raw sequencing data was processed by Torrent Suite (v5.8.0) software that came with the Gene Studio sequencer (ThermoFisher). For each sample, this program summarized gene expression in a CHP file. The CHP files were then loaded into the Transcriptome Analysis Console (TAC) program (ThermoFisher).

[3] = T cell signaling gene, MC38 tumors Day 10 RNA-Seq, lucitanib 10 mg/kg po, SEQ ID NO. 2 3 mg/kg sc
[4] = Type I/II interferon pathway gene, MC38 tumors Day 10 RNA-Seq, lucitanib 10 mg/kg po, SEQ ID NO. 2 3 mg/kg sc
[5] = antigen presentation gene, MC38 tumors Day 10 RNA-Seq, lucitanib 10 mg/kg po, SEQ ID NO. 2 3 mg/kg sc

B1: SEQ ID NO: 2: mouse ortholog construct (murine surrogate) of the circularly permuted IL-2/IL-2Rα fusion protein of SEQ ID NO: 1 (protein)
chain: SKSFQLEDAENFISNIRVTVVKLKGSDNTFECQFDDESATVVDFLRRWIAFCQSIISTSPQGGSSSTQQQQQHLEQLLMDLQELLSRMENYRNLKLPRMLTFKFYLPKQATELKDLQCLEDELGPLRHVLDLTQGSGGGSELCLYDPPEVPNATFKALSYKNGTILNCECKRGFRRLKELVYMRCLGNSWSSNCQCTSNSHDKSRKQVTAQLEHQKEQQTTTDMQKPTQSMHQENLTGHCREPPPWKHEDSKRIYHFVEGQSVHYECIPGYKALQRGPAISICKMKCGKTGWTQPQLTCVDGSHHHHHH
modifications: Mouse cpIL-2IL-2R-alpha
tolerability relative to recombinant human IL-2 (rhIL-2) [1]: improved tolerability
Cd3e mean expression value relative to vehicle group [2, 3]: 3.81
Cd4 mean expression value relative to vehicle group [2, 3]: 1.46
Cd8a mean expression value relative to vehicle group [2, 3]: 4.64
Cd8b1 mean expression value relative to vehicle group [2, 3]: 8.03
Cd28 mean expression value relative to vehicle group [2, 3]: 2.86
Cd247 mean expression value relative to vehicle group [2, 3]: 3.95
Cd3d mean expression value relative to vehicle group [2, 3]: 5.96
Ctla4 mean expression value relative to vehicle group [2, 3]: 0.60
H2-Aa mean expression value relative to vehicle group [2, 3]: 1.27
H2-Ab1 mean expression value relative to vehicle group [2, 3]: 2.25
H2-Eb1 mean expression value relative to vehicle group [2, 3]: 1.29
Icos mean expression value relative to vehicle group [2, 3]: 1.69
Ifng mean expression value relative to vehicle group [2, 3]: 2.06
Il2 mean expression value relative to vehicle group [2, 3]: 0.31
Lck mean expression value relative to vehicle group [2, 3]: 4.42
Lcp2 mean expression value relative to vehicle group [2, 3]: 0.23
Nfatc2 mean expression value relative to vehicle group [2, 3]: 0.67
Pdcd1 mean expression value relative to vehicle group [2, 3]: 2.42
Ptpn22 mean expression value relative to vehicle group [2, 3]: 2.19
Ptprc mean expression value relative to vehicle group [2, 3]: 2.32
Zap70 mean expression value relative to vehicle group [2, 3]: 2.63
B2m mean expression value relative to vehicle group [2, 4]: 0.03
Bst2 mean expression value relative to vehicle group [2, 4]: 0.08
Cd44 mean expression value relative to vehicle group [2, 4]: −0.19
Ciita mean expression value relative to vehicle group [2, 4]: 1.36
Fcgr1 mean expression value relative to vehicle group [2, 4]: 1.12
Gm10499 mean expression value relative to vehicle group [2, 4]: −0.02
H2-Aa mean expression value relative to vehicle group [2, 4]: 1.27
H2-Ab1 mean expression value relative to vehicle group [2, 4]: 2.25
H2-Eb1 mean expression value relative to vehicle group [2, 4]: 1.29
H2-K1 mean expression value relative to vehicle group [2, 4]: 0.04
H2-Q10 mean expression value relative to vehicle group [2, 4]: −0.28
Icam1 mean expression value relative to vehicle group [2, 4]: 0.88
Ifi35 mean expression value relative to vehicle group [2, 4]: 0.38
Ifit2 mean expression value relative to vehicle group [2, 4]: 0.54
Ifitm1 mean expression value relative to vehicle group [2, 4]: −0.13
Ifna2 mean expression value relative to vehicle group [2, 4]: 0
Ifnar1 mean expression value relative to vehicle group [2, 4]: 0.35
Ifnar2 mean expression value relative to vehicle group [2, 4]: 0.2
Ifnb1 mean expression value relative to vehicle group [2, 4]: −0.16
Ifng mean expression value relative to vehicle group [2, 4]: 2.06
Ifngr1 mean expression value relative to vehicle group [2, 4]: 0.23
Irf1 mean expression value relative to vehicle group [2, 4]: −0.01
Irf4 mean expression value relative to vehicle group [2, 4]: 0.92
Irf5 mean expression value relative to vehicle group [2, 4]: 0.43
Irf8 mean expression value relative to vehicle group [2, 4]: 1.46
Mx1 mean expression value relative to vehicle group [2, 4]: 0.6
Ncam1 mean expression value relative to vehicle group [2, 4]: −0.2
Pml mean expression value relative to vehicle group [2, 4]: 0.62
Ptpn6 mean expression value relative to vehicle group [2, 4]: 0.36
Socs3 mean expression value relative to vehicle group [2, 4]: 0.09
Tyk2 mean expression value relative to vehicle group [2, 4]: 0.36
Vcam1 mean expression value relative to vehicle group [2, 4]: 0.13
B2m mean expression value relative to vehicle group [2, 5]: 0.03
Btk mean expression value relative to vehicle group [2, 5]: 0.06
Cd14 mean expression value relative to vehicle group [2, 5]: 0.51
Cd36 mean expression value relative to vehicle group [2, 5]: −0.08
Cd74 mean expression value relative to vehicle group [2, 5]: 1.14
Ctsc mean expression value relative to vehicle group [2, 5]: 0.82
Ctss mean expression value relative to vehicle group [2, 5]: 1.2
Cybb mean expression value relative to vehicle group [2, 5]: 0.8
Fcgr1 mean expression value relative to vehicle group [2, 5]: 1.12
H2-Aa mean expression value relative to vehicle group [2, 5]: 1.27
H2-Ab1 mean expression value relative to vehicle group [2, 5]: 2.25
H2-DMa mean expression value relative to vehicle group [2, 5]: 1.16
H2-DMb2 mean expression value relative to vehicle group [2, 5]: 0.65
H2-Ea-ps mean expression value relative to vehicle group [2, 5]: 0
H2-Eb1 mean expression value relative to vehicle group [2, 5]: 1.29
H2-K1 mean expression value relative to vehicle group [2, 5]: 0.04
H2-Ob mean expression value relative to vehicle group [2, 5]: 1.61
H2-Q10 mean expression value relative to vehicle group [2, 5]: −0.28
Ly96 mean expression value relative to vehicle group [2, 5]: 0.27
Ncf4 mean expression value relative to vehicle group [2, 5]: 0.86
Psmb9 mean expression value relative to vehicle group [2, 5]: 0.03
Tap1 mean expression value relative to vehicle group [2, 5]: 0.12
Tlr1 mean expression value relative to vehicle group [2, 5]: 0.62
Tlr2 mean expression value relative to vehicle group [2, 5]: 0.36
Tlr4 mean expression value relative to vehicle group [2, 5]: 0.21
expression of genes associated with cytotoxic immune cell function and T cell activation ([2]; tumors): Increased expression
